# Earlier results, collected in paper PMC11996608.
# Target: core RNA polymerase (Escherichia coli) (UniProt P0A7Z4)
# Chain of RapA (P60240 2-968): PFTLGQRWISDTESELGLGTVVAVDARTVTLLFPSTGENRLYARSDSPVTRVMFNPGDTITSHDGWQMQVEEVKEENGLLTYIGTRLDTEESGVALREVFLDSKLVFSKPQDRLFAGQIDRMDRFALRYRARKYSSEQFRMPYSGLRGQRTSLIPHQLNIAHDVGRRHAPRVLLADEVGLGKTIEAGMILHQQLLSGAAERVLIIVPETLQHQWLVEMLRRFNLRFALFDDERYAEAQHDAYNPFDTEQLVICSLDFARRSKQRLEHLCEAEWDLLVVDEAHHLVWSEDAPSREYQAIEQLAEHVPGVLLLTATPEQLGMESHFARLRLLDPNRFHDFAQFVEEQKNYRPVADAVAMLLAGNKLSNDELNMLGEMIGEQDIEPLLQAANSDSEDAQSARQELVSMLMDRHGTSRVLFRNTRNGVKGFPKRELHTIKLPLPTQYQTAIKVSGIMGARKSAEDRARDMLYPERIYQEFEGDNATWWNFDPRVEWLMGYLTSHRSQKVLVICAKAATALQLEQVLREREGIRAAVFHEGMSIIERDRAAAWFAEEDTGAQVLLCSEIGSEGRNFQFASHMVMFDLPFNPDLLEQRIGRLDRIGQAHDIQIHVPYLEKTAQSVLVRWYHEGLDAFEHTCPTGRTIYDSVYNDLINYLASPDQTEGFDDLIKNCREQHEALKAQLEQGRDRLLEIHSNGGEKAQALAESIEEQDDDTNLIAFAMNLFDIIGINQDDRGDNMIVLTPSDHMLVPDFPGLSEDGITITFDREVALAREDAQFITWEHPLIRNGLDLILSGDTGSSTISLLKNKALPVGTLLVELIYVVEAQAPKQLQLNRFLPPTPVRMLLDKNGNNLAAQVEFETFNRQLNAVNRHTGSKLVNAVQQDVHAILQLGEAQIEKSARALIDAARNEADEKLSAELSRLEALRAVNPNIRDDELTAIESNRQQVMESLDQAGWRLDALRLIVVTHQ
substance,measurement,value
RapA (from UniProt P60240),Kd,7.5 nM
